We go through 5 molecules from US20100003258A1.

B1: anti-FGFR3 monoclonal antibody 20B4 (antibody, mouse IgG1, kappa)
heavy: EIQLQQSGPELVKPGASVKVSCKASGYSLTDYNMYWVKQSHGKSLEWIGYIDPYNGGTSYNQKFKGKATLTVDKSSSTAFMHLNSLTSEDSAVYYCARSLGPDFDYWGQGTTLTVSSAKTTPPSVYPLAPGSAAQTNSMVTLGCLVKGYFPEPVTVTWNSGSLSSGVHTFPAVLQSDLYTLSSSVTVPSSTWPSETVTCNVAHPASSTKVDKKIVPRDCGCKPCICTVPEVSSVFIFPPKPKDVLTITLTPKVTCVVVDISKDDPEVQFSWFVDDVEVHTAQTQPREEQFNSTFRSVSELPIMHQDWLNGKEFKCRVNSAAFPAPIEKTISKTKGRPKAPQVYTIPPPKEQMAKDKVSLTCMITDFFPEDITVEWQWNGQPAENYKNTQPIMDTDGSYFVYSKLNVQKSNWEAGNTFTCSVLHEGLHNHHTEKSLSHSPGK
light: QIVLTQSPAIMSASPGEKVTMTCSASSSVNYMHWYQQKSGTSPKRWIYDTSKLASGVPARFSGSGSGTSYSLTISSMEAEDTATYYCQQWNSNPLTFGAGTKLELKRADAAPTVSIFPPSSEQLTSGGASVVCFLNNFYPKDINVKWKIDGSERQNGVLNSWTDQDSKDSTYSMSSTLTLTKDEYERHNSYTCEATHKTSTSPIVKSFNRNEC
B2: anti-FGFR3 monoclonal antibody 15D8 (antibody, mouse IgG1, kappa)
heavy: EIQLQQSGPELVKPGASVKVSCKASGYAFTSYNMYWVKQSHGKSLEWIGYIDPYNGGTSYNQKFKGKATLTVDKSSSTAYMHLNSLTSEDSAVYYCAREGGNYEAWFAYWGQGTLVTVSAAKTTPPSVYPLAPGSAAQTNSMVTLGCLVKGYFPEPVTVTWNSGSLSSGVHTFPAVLQSDLYTLSSSVTVPSSTWPSETVTCNVAHPASSTKVDKKIVPRDCGCKPCICTVPEVSSVFIFPPKPKDVLTITLTPKVTCVVVDISKDDPEVQFSWFVDDVEVHTAQTQPREEQFNSTFRSVSELPIMHQDWLNGKEFKCRVNSAAFPAPIEKTISKTKGRPKAPQVYTIPPPKEQMAKDKVSLTCMITDFFPEDITVEWQWNGQPAENYKNTQPIMDTDGSYFVYSKLNVQKSNWEAGNTFTCSVLHEGLHNHHTEKSLSHSPGK
light: QIVLTQSPALMSASPGEKVTMTCSASSSVSYMYWYQQKPRSSPKPWIYLTSYLASGVPARFSGSGSGTSYSLTISSMEAEDAATYYCQQWSSYPLTFGAGTKLELKRADAAPTVSIFPPSSEQLTSGGASVVCFLNNFYPKDINVKWKIDGSERQNGVLNSWTDQDSKDSTYSMSSTLTLTKDEYERHNSYTCEATHKTSTSPIVKSFNRNEC
B3: anti-FGFR3 monoclonal antibody 4E7 (antibody, mouse IgG1, kappa)
heavy: B2 heavy with S59R
light: B2 light with Y52N, Y93N
B4: anti-FGFR3 monoclonal antibody 2G4 (antibody, mouse IgG1, kappa)
heavy: B2 heavy with S59R, Y60D
light: B2 light with Y52N, Y93N
B5: anti-FGFR3 monoclonal antibody 27H2 (antibody, mouse IgG1, kappa)
heavy: B2 heavy with S59R, L70M
light: B2 light with Y52N, Y93N

Numbering of substitutions follows the chain as printed.

Chain of human FGFR3 IIIb on FDCP-1 cells (FDCP-FGFR3 IIIb #122) (human), P22607 (P22607 23-806): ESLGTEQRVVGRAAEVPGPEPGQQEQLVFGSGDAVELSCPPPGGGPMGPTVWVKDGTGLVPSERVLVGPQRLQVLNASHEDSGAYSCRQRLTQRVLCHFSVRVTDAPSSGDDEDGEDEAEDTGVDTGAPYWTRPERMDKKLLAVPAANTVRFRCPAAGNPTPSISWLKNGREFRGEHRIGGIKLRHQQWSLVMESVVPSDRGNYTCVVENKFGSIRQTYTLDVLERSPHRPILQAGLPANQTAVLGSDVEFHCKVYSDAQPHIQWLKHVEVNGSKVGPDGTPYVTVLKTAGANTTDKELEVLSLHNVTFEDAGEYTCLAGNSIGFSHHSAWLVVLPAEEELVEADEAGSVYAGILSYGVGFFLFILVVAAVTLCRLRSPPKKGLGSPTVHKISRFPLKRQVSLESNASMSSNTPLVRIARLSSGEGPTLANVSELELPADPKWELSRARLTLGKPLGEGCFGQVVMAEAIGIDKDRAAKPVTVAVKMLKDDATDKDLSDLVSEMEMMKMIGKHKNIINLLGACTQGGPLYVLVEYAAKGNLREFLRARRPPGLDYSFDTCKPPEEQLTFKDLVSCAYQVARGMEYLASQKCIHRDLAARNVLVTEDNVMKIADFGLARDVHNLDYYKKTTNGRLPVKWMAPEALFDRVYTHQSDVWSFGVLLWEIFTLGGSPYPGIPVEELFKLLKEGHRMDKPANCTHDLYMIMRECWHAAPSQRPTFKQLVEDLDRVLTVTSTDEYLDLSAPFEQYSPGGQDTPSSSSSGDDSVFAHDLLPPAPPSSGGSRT

The target of one test is FDCP-FGFR3 IIIb and FDCP-FGFR3 IIIc cell lines. The test can be described thus: cell-based or functional assay.
B1: the maximal inhibition of FGF1 induced proliferation of FDCP-FGFR3 cell lines turned out to be 40%.

The next test addresses human FGFR3 IIIb on FDCP-1 cells (FDCP-FGFR3 IIIb #122) (human), P22607. The test can be described thus: cell-based or functional assay.
B1 displayed an FDCP Proliferation IC50, FGFR3 IIIb of 1.51 nM.
Same read-out and setting: for B2 the value was 0.14 nM.
B3 had an FDCP Proliferation IC50, FGFR3 IIIb of 0.9 nM.
As to B4, the FDCP Proliferation IC50, FGFR3 IIIb is 0.63 nM.
For the molecule B5, the FDCP Proliferation IC50, FGFR3 IIIb is 0.56 nM.

For the next test, the target named is human FGFR3 IIIc G380R on FDCP-1 cells (FGFR3 IIIc G380R #1) (human), P22607. The test can be described thus: cell-based or functional assay.
Chain of human FGFR3 IIIc G380R on FDCP-1 cells (FGFR3 IIIc G380R #1) (human), P22607 (P22607 23-806 G380R): as the sequence (P22607 23-806) above, with G358R counted along it
Consider B2, for which the FDCP Proliferation IC50, FGFR3 IIIc G380R was 3.1 nM.
Molecule B3 came in with an FDCP Proliferation IC50, FGFR3 IIIc G380R of 3.5 nM.
The molecule B4 gave an FDCP Proliferation IC50, FGFR3 IIIc G380R of 11.7 nM.
In turn, B5 returned an FDCP Proliferation IC50, FGFR3 IIIc G380R of 8.8 nM.

The target in a further test is human FGFR3 IIIc on FDCP-1 cells (FDCP-FGFR3 IIIc #109) (human), P22607. The test can be described thus: cell-based or functional assay.
Chain of human FGFR3 IIIc on FDCP-1 cells (FDCP-FGFR3 IIIc #109) (human), P22607 (P22607 23-806): as the sequence (P22607 23-806) above
B1 registered an FDCP Proliferation IC50, FGFR3 IIIc of 102 nM.
In turn, B2 yielded an FDCP Proliferation IC50, FGFR3 IIIc of 0.28 nM.
The molecule B3 displayed an FDCP Proliferation IC50, FGFR3 IIIc of 0.62 nM.
B4 registered an FDCP Proliferation IC50, FGFR3 IIIc of 0.5 nM.
Turning to B5, the FDCP Proliferation IC50, FGFR3 IIIc amounted to 0.59 nM.
